The values that follow come from paper PMC8130760.

The assay addresses human IL-15Rα (captured on the surface plasmon resonance sensor chip) (human) (UniProt Q13261). The experiment in a line: SPR.
Sequence of UniProt Q13261 (Q13261 31-267): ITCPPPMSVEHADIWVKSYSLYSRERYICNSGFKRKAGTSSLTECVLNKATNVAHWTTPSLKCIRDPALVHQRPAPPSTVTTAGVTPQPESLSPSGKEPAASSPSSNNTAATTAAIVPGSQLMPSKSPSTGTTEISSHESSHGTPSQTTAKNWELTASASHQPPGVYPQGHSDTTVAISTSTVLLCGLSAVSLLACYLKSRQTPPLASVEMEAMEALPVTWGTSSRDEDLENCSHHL

For the substance “NKTR-255, polyethylene glycol-conjugate of recombinant human interleukin-15 (from UniProt P40933 49-162) (ligand)”, the Kd turned out to be 85 pM, the off-rate (koff) is 6.7e-05 s⁻¹ and the on-rate (kon) worked out at 780000 M⁻¹ s⁻¹.

As to “recombinant human interleukin-15 (rhIL-15) (from UniProt P40933 49-162) (ligand)”, the Kd stood at 19 pM, the koff was 9.3e-05 s⁻¹ and the on-rate constant (kon) amounted to 5.1e+06 M⁻¹ s⁻¹.

Usually Kd stands for the concentration at which binding is half-saturated. By koff is commonly meant the rate constant with which the complex falls apart. A lower koff goes with slow dissociation. By kon is commonly meant the rate constant with which the complex forms.
